In paper PMC12269619:

How the values were obtained:
PfCSPm [1] = assay: BLI; KD2, second site
[2] = molecular target: Biotinylated junctional peptide NPDP19 (Plasmodium falciparum (clone 3D7)) (UniProt Q7K740); assay: BLI
PfCSPm [3] = assay: BLI; KD1

CIS43 mature
Kd (PfCSPm [1]): 1.3 µM | Kd [2]: 0.0086 µM | Kd (PfCSPm [3]): 0.0452 µM
